Where no end group is shown, it is not given here. [ ]: non-standard residue; d: D form. Cit = NC(=O)NCCC[C@H](N)C(=O)O
What was measured:
Assay in all cases: SPR, peptide on CAP chip, 1:1 fit
[1] = target: T1, citrullinated human enolase peptide 1 (CEP-1) (human, cysteine pairing not given here; also: biotinylated form used in SPR, place not given here)
T1 construct: Coated directly on plates in ELISA; biotinylated and captured on a CAP chip in SPR; also called cit a-enolase; citrullinated alpha-enolase peptide 1
T1 peptide: CKIHA[Cit]EIFDS[Cit]GNPTVEC

[2] = target: T2, citrullinated human vimentin residues 60-75 (cit-vim) (human, also: biotinylated, place not given here)
T2 construct: Biotinylated peptide on streptavidin plates (ELISA) or CAP chip (SPR); also called Vim60-75; cit vimentin
T2 peptide: VYAT[Cit]SSAV[Cit]L[Cit]SSVP

[3] = target: T3, citrullinated human fibrinogen residues 36-52 (cit-fib) (human, also: biotinylated, place not given here)
T3 construct: Biotinylated peptide on streptavidin plates (ELISA) or CAP chip (SPR); also called Fib36-52; cit fibrinogen
T3 peptide: NEEGFFSA[Cit]GHRPLDKK

B1: antibody A09 (antibody)
chain 1: KSRTEIHSRVCGGHRAQLQGQLALGRVNGYGDSTLEGRVVVNAPTKVDNPNRLQPLPWGLADPHPVVTIIPNGASRDSAGEGQGLRRLHQSW
chain 2: GPLSDLINDDFGGFAWVLLVPGDKSITHNITAACSAGDGDRLSRRPRHGGRLSQHRL
koff [1]: 0.0429 s⁻¹ | Kd [2]: 180 nM | koff [2]: 0.0433 s⁻¹ | Kd [3]: 160 nM | koff [3]: 0.0291 s⁻¹

— US20150056208A1 (VILARA, published 2015)
